Reference: patent publication US6034062A, “Bone morphogenetic protein (BMP)-9 compositions and their uses” (Genetics Institute, Inc., priority 1997, dated 2000)
Where two headings read alike, the source gives them in different places.

Tests used:
[1] = tested on: BMP-9 receptors expressed on HepG2 cells; assay: 125I-BMP-9 binding to HepG2 cells
Description: BMP-9 responsiveness in parenchymal liver cells is tested by screening four liver cell lines for their ability to bind iodinated, CHO-derived BMP-9. […] Specific binding of BMP-9 to HepG2 cells is carried out by incubating HepG2 cells grown to confluence in Dulbecco's Modified Eagle's Medium (DME) containing 10% heat-inactivated fetal calf serum (FCS) on gelatinized 6 well plates with 2 ng/ml ^125 I-BMP-9 and increasing concentrations of unlabelled BMP-9 in binding buffer (136.9 mM NaCl, 5.37 mM KCl, 1.26 mM CaCl2, 0.64 mM MgSO4, 0.34 mM Na2 HPO4, 0.44 mM KH2 PO4, 0.49 mM MgCl2, 25 mM HEPES and 0.5% BSA, pH 7.4) for 20 hours at 4° C. to achieve binding equilibrium. This incubation follows a one hour preincubation at 37° C. in binding buffer alone. For crosslinking experiments, the cells were incubated with 500 μM disuccinimidyl suberate for 20 minutes at […] following binding. Cell extracts were analyzed on SDS-PAGE. […] To test the binding specificity of the receptors for BMP-9, HepG2 cells were incubated with ^125 I-BMP-9 and a 250-fold excess of different unlabeled ligands.

Chang = assay: 125I-BMP-9 binding to Chang liver cell line; details: iodinated CHO-derived BMP-9
Description: BMP-9 responsiveness in parenchymal liver cells is tested by screening four liver cell lines for their ability to bind iodinated, CHO-derived BMP-9. […] Specific binding of BMP-9 to HepG2 cells is carried out by incubating HepG2 cells grown to confluence in Dulbecco's Modified Eagle's Medium (DME) containing 10% heat-inactivated fetal calf serum (FCS) on gelatinized 6 well plates with 2 ng/ml ^125 I-BMP-9 and increasing concentrations of unlabelled BMP-9 in binding buffer (136.9 mM NaCl, 5.37 mM KCl, 1.26 mM CaCl2, 0.64 mM MgSO4, 0.34 mM Na2 HPO4, 0.44 mM KH2 PO4, 0.49 mM MgCl2, 25 mM HEPES and 0.5% BSA, pH 7.4) for 20 hours at 4° C. to achieve binding equilibrium. This incubation follows a one hour preincubation at 37° C. in binding buffer alone. For crosslinking experiments, the cells were incubated with 500 μM disuccinimidyl suberate for 20 minutes at […] following binding. Cell extracts were analyzed on SDS-PAGE. […] The curvilinear nature of the Scatchard plot indicates negative cooperativity among BMP-9 receptors or that HepG2 cells express at least two populations of BMP-9 receptors with different affinities. Crosslinking analysis on HepG2 cells with ^125 I-BMP-9 yields two binding proteins of apparent molecular weights of 54 and 80 kD. […]

liver plasma membranes = assay: [125I]rhBMP-9 binding to liver plasma membranes; details: adult rat liver plasma membranes, displaceable by 100-fold excess of unlabeled rhBMP-9
Description: (§1) To determine potential target tissues for BMP-9, plasma membrane preparations from adult rat organs are screened for specific [^125 I]rhBMP-9 binding. Plasma membranes are prepared by the methods of Neville, J. Biophys Biochem Cytol 8:412-422 (1960) and Ray, Biochim Biophys Acta 196:1-9 (1970) with the following modifications: Fresh tissues from adult male Long-Evans rats are homogenized with 10 strokes of a teflon homogenizer. Plasma membranes are collected from discontinuous sucrose gradients at 37%/41% sucrose interface and the 41%/45% sucrose interface. Homogenization buffer and sucrose solutions are supplemented with 0.7 μg/ml leupeptin, 2 μg/ml aprotinin and 240 μg/ml pefabloc. Protein levels in plasma membrane preparations are determined by the bicinchoninic acid assay (Pierce, Rockford, Ill.) using immunoglobulin G as a standard.
(§2) BMP-9 binding is carried out by suspending plasma membranes at 30 μg/100μl in binding buffer (136.9 mM NaCl, 5.37 mM KCl, 1.26 mM CaCl2, 0.64 mM MgSO4, 0.34 mM Na2 HPO4, 0.44 mM KH2 PO4, 0.49 mM MgCl2, 25 mM HEPES and 0.5% BSA, pH 7.4) containing o.5 ng [^125 I]rhBMP-9. Binding is allowed to equilibrate by incubation for 16 h at 4° C. […]
(§3) To verify that this specific binding is of high affinity, a more complete displacement profile is determined with lung and kidney plasma membranes.

lung plasma membranes = assay: [125I]rhBMP-9 binding to lung plasma membranes; set-up: species or system rat
Description: as §1, §2, §3

kidney plasma membranes = assay: [125I]rhBMP-9 binding to kidney plasma membranes; set-up: species or system rat
Description: as §1, §2, §3

specific [125I]rhBMP-9 binding (liver plasma membranes): evident
specific [125I]rhBMP-9 binding (lung plasma membranes; adult rat lung plasma membranes, displaceable by 100-fold excess of unlabeled rhBMP-9): evident
Kd (lung plasma membranes; rat lung plasma membranes): 0.6 nM
specific [125I]rhBMP-9 binding (kidney plasma membranes; adult rat kidney plasma membranes, displaceable by 100-fold excess of unlabeled rhBMP-9): evident
Kd (kidney plasma membranes; rat kidney plasma membranes): 0.3 nM
B1: BMP-9: recombinant human bone morphogenetic protein-9, mature amino acids #1-#110 of SEQ ID NO:9, expressed in CHO cells (protein)
chain: TRECSRSCPRTAPQRQVRAVTRRTRMAHVAAGSTLARRKRSAGAGSHCQKTSLRVNFEDIGWDSWIIAPKEYEAYECKGGCFFPLADDVTPTKHAIVQTLVHLKFPTKVG
modifications: 125I-iodinated as tracer; unlabelled BMP-9 used as the displacing ligand
Kd ([1]; HepG2 cells, Scatchard analysis, 20 hours at 4° C., read-out: Kd of high affinity receptors): 0.3 nM
Kd ([1]; HepG2 cells, estimated, read-out: Kd of the high affinity binding sites): ~0.27 nM
Kd (estimated binding affinity) expressed ([1]; HepG2 cells, printed as Kd =0.3 nM=8 ng/ml): 8 ng/mL
specific binding of 125I-BMP-9 ([1]; HepG2 liver cell line, iodinated CHO-derived BMP-9): highest degree of binding
specific binding of 125I-BMP-9 (Chang): to some extent
